How the values were obtained:
Experiment in all cases: cryo-EM structure; BS3-crosslinked six-subunit holo-complex, apo / non-liganded; fractions from Superose 6 diluted to 20 mM HEPES.NaOH pH 7.5, 50 mM NaCl, 0.5 mM TCEP, 0.1 mg/ml; maps at 10.8 Å (holo-complex), 8.53 Å (hinge/arm) and 6.5 Å (head-only); pseudo-atomic model built from homology and AlphaFold models
Details in all cases: both partners purified
[1] = molecular target: T1, Smc5 (Walker B mutant E1015Q), subunit of the S. cerevisiae Smc5/6 holo-complex (S. cerevisiae, UniProt Q08204 1-1093, E1015Q)
T1 construct: Smc5, Saccharomyces cerevisiae; the model holds amino acids 35-390, 394-882, 884-1068; The complex was crosslinked with BS3; also called κ-SMC; source: recombinant, expressed in insect cells, purified as holo-complex (Superose 6 SEC), BS3-crosslinked
T1 sequence: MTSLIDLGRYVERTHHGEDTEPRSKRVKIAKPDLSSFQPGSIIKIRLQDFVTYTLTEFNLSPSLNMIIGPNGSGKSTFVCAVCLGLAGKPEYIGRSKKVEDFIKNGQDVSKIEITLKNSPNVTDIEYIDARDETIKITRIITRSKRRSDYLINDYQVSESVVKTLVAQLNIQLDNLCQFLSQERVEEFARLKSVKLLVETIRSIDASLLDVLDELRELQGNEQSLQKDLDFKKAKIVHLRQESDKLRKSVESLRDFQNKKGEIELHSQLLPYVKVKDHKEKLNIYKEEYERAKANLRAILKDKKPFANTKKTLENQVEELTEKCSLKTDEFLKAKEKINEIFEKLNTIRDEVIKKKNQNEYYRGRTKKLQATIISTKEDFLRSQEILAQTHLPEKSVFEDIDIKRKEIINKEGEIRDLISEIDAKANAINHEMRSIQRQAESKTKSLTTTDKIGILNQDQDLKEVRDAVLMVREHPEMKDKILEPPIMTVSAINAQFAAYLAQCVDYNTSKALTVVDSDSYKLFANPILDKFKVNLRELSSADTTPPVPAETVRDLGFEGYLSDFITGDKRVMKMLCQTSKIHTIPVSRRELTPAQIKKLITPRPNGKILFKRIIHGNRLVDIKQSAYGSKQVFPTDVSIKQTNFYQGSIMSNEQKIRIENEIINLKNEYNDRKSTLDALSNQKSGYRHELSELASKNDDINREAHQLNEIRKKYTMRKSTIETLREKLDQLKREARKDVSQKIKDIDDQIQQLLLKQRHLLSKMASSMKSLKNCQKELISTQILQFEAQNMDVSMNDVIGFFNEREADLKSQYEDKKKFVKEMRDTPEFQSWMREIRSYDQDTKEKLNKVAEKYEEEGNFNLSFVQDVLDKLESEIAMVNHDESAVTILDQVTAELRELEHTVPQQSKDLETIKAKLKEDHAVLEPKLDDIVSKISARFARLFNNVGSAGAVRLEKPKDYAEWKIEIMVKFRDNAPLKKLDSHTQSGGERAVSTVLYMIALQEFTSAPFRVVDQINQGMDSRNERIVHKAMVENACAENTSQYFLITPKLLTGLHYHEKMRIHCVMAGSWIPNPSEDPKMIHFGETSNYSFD

[2] = molecular target: T2, Nse4 with HaloTag, kleisin subunit of the S. cerevisiae Smc5/6 holo-complex (S. cerevisiae, UniProt P43124 1-402)
T2 construct: Nse4, Saccharomyces cerevisiae; the model holds amino acids 40-124, 184-202, 213-245, 283-402; Density of the HaloTag attached to Nse4 was removed by particle subtraction, so the tag was on the protein on the grid; its end is told only for the yeast strain (C-terminal), not for the recombinant protein; source: recombinant, expressed in insect cells, purified as holo-complex (Superose 6 SEC), …
T2 sequence: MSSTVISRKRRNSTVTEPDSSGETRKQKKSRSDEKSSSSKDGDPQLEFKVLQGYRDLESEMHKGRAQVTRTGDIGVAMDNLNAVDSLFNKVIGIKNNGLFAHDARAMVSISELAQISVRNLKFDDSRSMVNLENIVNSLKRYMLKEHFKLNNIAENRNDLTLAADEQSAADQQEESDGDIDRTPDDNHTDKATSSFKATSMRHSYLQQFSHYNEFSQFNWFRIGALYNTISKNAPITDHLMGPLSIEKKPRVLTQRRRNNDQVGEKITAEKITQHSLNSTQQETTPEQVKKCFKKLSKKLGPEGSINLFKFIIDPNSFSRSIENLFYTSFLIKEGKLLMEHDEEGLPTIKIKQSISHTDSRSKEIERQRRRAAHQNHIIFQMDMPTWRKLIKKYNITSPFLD

[3] = molecular target: T3, Nse1, subunit of the S. cerevisiae Smc5/6 holo-complex (S. cerevisiae, UniProt Q07913 1-336)
T3 construct: Nse1, Saccharomyces cerevisiae; the model holds amino acids 11-336; also called KITE subunit; source: recombinant, expressed in insect cells, purified as holo-complex (Superose 6 SEC), BS3-crosslinked
T3 sequence: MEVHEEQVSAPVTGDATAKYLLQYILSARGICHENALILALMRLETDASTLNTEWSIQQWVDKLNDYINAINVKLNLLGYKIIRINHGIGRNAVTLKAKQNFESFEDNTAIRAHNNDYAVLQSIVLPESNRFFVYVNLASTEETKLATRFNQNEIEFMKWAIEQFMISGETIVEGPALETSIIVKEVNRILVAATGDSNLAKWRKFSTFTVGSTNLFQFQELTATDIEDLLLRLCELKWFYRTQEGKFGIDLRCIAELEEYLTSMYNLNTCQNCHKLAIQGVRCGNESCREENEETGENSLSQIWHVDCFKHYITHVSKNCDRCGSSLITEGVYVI

Measured: binding result

B1: Nse3, subunit of the S. cerevisiae Smc5/6 holo-complex (natural protein)
chain: MSSIDNDSDVDLTEDLAVAKIVKENPVARKMVRYILSRGESQNSIITRNKLQSVIHEAAREENIAKPSFSKMFMDINAILYNVYGFELQGLPSKNNMNAGGNGSNSNTNKSMPEPLGHRAQKFILLNNVPHSKNFDDFKILQSAHTYEELIVTGEYIGDDIASGTSNTLESKLSTDRDLVYKGVLSVILCIVFFSKNNILHQELIKFLETFGIPSDGSKIAILNITIEDLIKSLEKREYIVRLEEKSDTDGEVISYRIGRRTQAELGLESLEKLVQEIMGLEKEQTKSLHDDIIKSIGDSYSI
notes: Nse3, Saccharomyces cerevisiae; the model holds amino acids 9-99, 114-152, 173-303; also called KITE subunit; source: recombinant, expressed in insect cells, purified as holo-complex (Superose 6 SEC), BS3-crosslinked
binds: all assays above
